Measurements: paper PMC12851578
“And” between values parts separate entries of the source, which are not always exact repeats. Equal entries are not always repeated.

Molecular target: actin purified from muscle (F-actin) (Bos taurus (ground beef)) (UniProt P68138)
Test: co-sedimentation

## Lfat1 ABD [change], recombinant (from UniProt Q5ZVQ3 138-355) (domain or fragment)
  Kd: 19.1 µM and 16.3 µM and 63.7 µM
